Measured values published in the supplement of paper PMC7125110.
± gives the standard error. Fewer inactive variants are shown than the library holds.

B1: glmS ribozyme (parent)
chain: AUAAAAGCGCCAGAACUACAGAAAUGUAGUUGACGAGGAGGAGGUUUAUCGAAUUUUCGGCGGAUGCCUCCAAA

Tests used:
Conditions in all cases: with glucosamine-6-phosphate
[1] = variants of: B1; experiment: self-cleavage kobs at 40 uM GlcN6P; higher = faster cleavage; RNA array
Method in brief: (§1)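 Weighted Michaelis–Menten fits across concentrations supplied kcat and KM, based on kobs from one- or two-exponential decay fits to normalised per-tile medians. The data came from barcoded ribozyme variants transcribed in situ by E. coli RNA polymerase on sequenced MiSeq chips and tracked at 37 °C by a hybridised Cy3 probe. Glucosamine-6-phosphate (40 μM to 10 mM) in HEPES/KCl/Mg(OAc)2 buffer was flowed in.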

[2] = variants of: B1; experiment: self-cleavage kobs at 640 uM GlcN6P; higher = faster cleavage; RNA array
Method in brief: as §1

[3] = variants of: B1; experiment: self-cleavage kobs at 2500 uM GlcN6P; higher = faster cleavage; RNA array
Method in brief: as §1

[4] = variants of: B1; experiment: self-cleavage kobs at 10000 uM GlcN6P; higher = faster cleavage; RNA array
Method in brief: as §1

[5] = variants of: B1; experiment: self-cleavage kobs at 160 uM GlcN6P; higher = faster cleavage; RNA array
Method in brief: as §1

Variant	self-cleavage kobs at 40 uM GlcN6P [1]	self-cleavage kobs at 640 uM GlcN6P [2]	self-cleavage kobs at 2500 uM GlcN6P [3]	self-cleavage kobs at 10000 uM GlcN6P [4]	self-cleavage kobs at 160 uM GlcN6P [5]
A12U A15U A42G	0.000666 ± 0.00019 s⁻¹	0.00157 ± 0.00069 s⁻¹	0.00849 ± 0.0038 s⁻¹		
C16A A52U G60A C71G	5.98e-05 ± 2.3e-05 s⁻¹				
G35C U45C C67G C68A	0.00152 ± 0.00042 s⁻¹			0.000566 ± 0.00018 s⁻¹	
C10A G37C C68U	< 1e-05 s⁻¹				
G60C C71G	< 1e-05 s⁻¹			< 1e-05 s⁻¹	< 1e-05 s⁻¹
G9U G32C A42U	< 1e-05 s⁻¹	< 1e-05 s⁻¹		< 1e-05 s⁻¹	
C50G G62U	0.00036 ± 0.00014 s⁻¹	0.000122 ± 2.7e-05 s⁻¹		3.35e-05 ± 1e-05 s⁻¹	0.000115 ± 1.8e-05 s⁻¹
A15U A52U C70A	< 1e-05 s⁻¹				
U47G U56G G63U	< 1e-05 s⁻¹				
A42U G51C	< 1e-05 s⁻¹	< 1e-05 s⁻¹			< 1e-05 s⁻¹
C50G C61U A64G	0.000244 ± 8.5e-05 s⁻¹	0.000192 ± 8.3e-05 s⁻¹		4.62e-05 ± 1.7e-05 s⁻¹	8.89e-05 ± 3.2e-05 s⁻¹
A14G A39C G66A	9.51e-05 ± 2.2e-05 s⁻¹		0.00447 ± 0.00085 s⁻¹	0.00527 ± 0.0016 s⁻¹	
A18G	0.00161 ± 0.00045 s⁻¹			0.0231 ± 0.01 s⁻¹	
G7A G13U U69G C71A	0.00031 ± 7.3e-05 s⁻¹			0.000516 ± 0.00016 s⁻¹	
G35A U56C C58U	< 1e-05 s⁻¹			< 1e-05 s⁻¹	
G9A U55G	< 1e-05 s⁻¹				< 1e-05 s⁻¹
A14G G41A	0.000282 ± 3.2e-05 s⁻¹	0.00125 ± 0.00022 s⁻¹	0.00232 ± 0.00052 s⁻¹	0.00645 ± 0.0016 s⁻¹	0.000481 ± 7.9e-05 s⁻¹
C10U U45G	< 1e-05 s⁻¹	< 1e-05 s⁻¹		< 1e-05 s⁻¹	< 1e-05 s⁻¹
G44A U47A C71A	< 1e-05 s⁻¹	< 1e-05 s⁻¹	< 1e-05 s⁻¹	< 1e-05 s⁻¹	
A14C C50G C68A	4.86e-05 ± 1.6e-05 s⁻¹			0.000123 ± 2.5e-05 s⁻¹	
A14U C50G C58G	0.000124 ± 3.9e-05 s⁻¹			0.000108 ± 2.7e-05 s⁻¹	
A6C C34A	< 1e-05 s⁻¹	< 1e-05 s⁻¹	< 1e-05 s⁻¹	< 1e-05 s⁻¹	< 1e-05 s⁻¹

Variant	self-cleavage kobs at 40 uM GlcN6P [1]	self-cleavage kobs at 640 uM GlcN6P [2]	self-cleavage kobs at 2500 uM GlcN6P [3]	self-cleavage kobs at 10000 uM GlcN6P [4]	self-cleavage kobs at 160 uM GlcN6P [5]
A6C U56C	< 1e-05 s⁻¹				< 1e-05 s⁻¹
G32C G44U U56A	< 1e-05 s⁻¹	< 1e-05 s⁻¹		< 1e-05 s⁻¹	
U30C G35A	< 1e-05 s⁻¹	< 1e-05 s⁻¹	< 1e-05 s⁻¹	< 1e-05 s⁻¹	< 1e-05 s⁻¹
C50U G59C	< 1e-05 s⁻¹	< 1e-05 s⁻¹	< 1e-05 s⁻¹	< 1e-05 s⁻¹	< 1e-05 s⁻¹
G29A U49A	< 1e-05 s⁻¹	< 1e-05 s⁻¹			< 1e-05 s⁻¹
G43U C58G	< 1e-05 s⁻¹	< 1e-05 s⁻¹	< 1e-05 s⁻¹	< 1e-05 s⁻¹	< 1e-05 s⁻¹
G51C U57G	< 1e-05 s⁻¹	< 1e-05 s⁻¹	< 1e-05 s⁻¹		< 1e-05 s⁻¹
U30G A33C A42C	< 1e-05 s⁻¹			< 1e-05 s⁻¹	
C8U G44C A52U C61A	< 1e-05 s⁻¹		< 1e-05 s⁻¹	< 1e-05 s⁻¹	
A39U A42C U54C U65C	< 1e-05 s⁻¹	< 1e-05 s⁻¹	< 1e-05 s⁻¹		
U31A G62C	< 1e-05 s⁻¹		< 1e-05 s⁻¹	< 1e-05 s⁻¹	< 1e-05 s⁻¹
U30A A48G	< 1e-05 s⁻¹	< 1e-05 s⁻¹			< 1e-05 s⁻¹
C16G G40A A64C	< 1e-05 s⁻¹			< 1e-05 s⁻¹	
G32U C34G C68G	4.91e-05 ± 1.8e-05 s⁻¹			3.41e-05 ± 1.6e-05 s⁻¹	
A6C G29C A36G	< 1e-05 s⁻¹		< 1e-05 s⁻¹	< 1e-05 s⁻¹	< 1e-05 s⁻¹
G29U A33U G35A U69A	0.000163 ± 6.6e-05 s⁻¹			6.21e-05 ± 3e-05 s⁻¹	
C16G G63A	< 1e-05 s⁻¹			< 1e-05 s⁻¹	
A12C G63A	< 1e-05 s⁻¹	< 1e-05 s⁻¹	< 1e-05 s⁻¹	< 1e-05 s⁻¹	< 1e-05 s⁻¹
G32A A33C	< 1e-05 s⁻¹				< 1e-05 s⁻¹
G29U A36C A39C	< 1e-05 s⁻¹			< 1e-05 s⁻¹	
A14G A42G	0.0027 ± 0.00037 s⁻¹	0.00956 ± 0.0029 s⁻¹	0.0467 ± 0.022 s⁻¹	0.0773 ± 0.025 s⁻¹	0.00391 ± 0.0011 s⁻¹
